Experimental data from article PMC10786891, “Massively parallel profiling of RNA-targeting CRISPR-Cas13d”.
Residue numbers refer to the chain shown, from its start. Names may count otherwise.

T1: EsCas13d, nuclease-dead (Eubacterium siraeum, UniProt B0MS50, R295A;H300A;R849A;H854A)
T1 sequence: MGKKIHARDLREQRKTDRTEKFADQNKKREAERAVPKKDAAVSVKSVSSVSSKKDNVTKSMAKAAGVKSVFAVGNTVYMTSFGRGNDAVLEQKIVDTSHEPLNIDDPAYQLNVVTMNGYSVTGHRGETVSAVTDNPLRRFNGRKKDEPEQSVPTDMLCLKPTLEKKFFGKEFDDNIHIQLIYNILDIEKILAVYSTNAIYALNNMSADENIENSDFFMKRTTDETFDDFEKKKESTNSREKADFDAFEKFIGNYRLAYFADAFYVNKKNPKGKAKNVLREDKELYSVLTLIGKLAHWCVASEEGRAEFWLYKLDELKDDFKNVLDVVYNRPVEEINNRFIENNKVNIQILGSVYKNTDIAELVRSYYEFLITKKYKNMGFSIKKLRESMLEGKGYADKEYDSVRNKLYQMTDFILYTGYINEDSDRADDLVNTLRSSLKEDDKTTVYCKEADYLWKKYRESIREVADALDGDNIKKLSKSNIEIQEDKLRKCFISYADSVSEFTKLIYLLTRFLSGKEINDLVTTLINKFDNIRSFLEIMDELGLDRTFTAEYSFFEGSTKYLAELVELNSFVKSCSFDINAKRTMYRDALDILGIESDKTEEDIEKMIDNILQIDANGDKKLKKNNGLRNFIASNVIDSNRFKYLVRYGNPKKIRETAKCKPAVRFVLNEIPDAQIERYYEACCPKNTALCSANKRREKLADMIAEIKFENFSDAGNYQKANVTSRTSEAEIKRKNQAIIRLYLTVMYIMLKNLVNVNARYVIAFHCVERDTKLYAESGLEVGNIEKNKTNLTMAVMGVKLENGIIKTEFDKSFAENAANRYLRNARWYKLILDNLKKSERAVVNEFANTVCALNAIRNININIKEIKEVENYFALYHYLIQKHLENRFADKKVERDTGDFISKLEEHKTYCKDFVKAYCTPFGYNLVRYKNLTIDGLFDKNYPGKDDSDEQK

B1: target 1 insC 3' of 17,insG 3' of 14 (mixed)
RNA 1: CACCCGUGCAAAAAUGCAGGGGUCUAAAACUGAGCGGAUAACCUCUCUAUGG
RNA 2: GGGAAUGGAUCCACAUCUACGAAUUCGUACCAUAGCAGAGGGUUAUCCGCUCACCGAGAUCGGAAGAGCACACGU
B2: target 1 U3A,U10G (mixed)
RNA 1: B1 RNA 1
RNA 2: GGGAAUGGAUCCACAUCUACGAAUUCGUACCAUAGAGAGGUGAUCCGCACACCGAGAUCGGAAGAGCACACGU
B3: target 1 insA 3' of 15,insC 3' of 8 (mixed)
RNA 1: B1 RNA 1
RNA 2: B1 RNA 2 with C36A, A37G, G38A, G42U, U44A, A45U, U46C
B4: target 1 U8A,C22U (mixed)
RNA 1: B1 RNA 1
RNA 2: B2 RNA 2 with C30U, G42U, U44A, A49U
B5: target 1 insC 3' of 17,insU 3' of 17 (mixed)
RNA 1: B1 RNA 1
RNA 2: B1 RNA 2 with A37U, G38A, A39G, G40A
B6: target 1 C4U,U8C (mixed)
RNA 1: B1 RNA 1
RNA 2: B2 RNA 2 with G42U, U44C, C48U, A49U
B7: target 1 insG 3' of 11,insG 3' of 7 (mixed)
RNA 1: B1 RNA 1
RNA 2: B1 RNA 2 with C36A, A37G, G38A, A39G, G41U, U44A, A45U, U46C, C47G
B8: target 1 A9U,G12A (mixed)
RNA 1: B1 RNA 1
RNA 2: B2 RNA 2 with G40A, G42U, A43U, A49U
B9: target 1 insC 3' of 20,insG 3' of 1 (mixed)
RNA 1: B1 RNA 1
RNA 2: GGGAAUGGAUCCACAUCUACGAAUUCGUACCACUAGAGAGGUUAUCCGCUCAGCCGAGAUCGGAAGAGCACACGU
B10: target 1 C6G,A16U (mixed)
RNA 1: B1 RNA 1
RNA 2: B2 RNA 2 with A36U, G42U, C46G, A49U
B11: target 1 U3A,G17A (mixed)
RNA 1: B1 RNA 1
RNA 2: B2 RNA 2 with G35A, G42U
B12: target 1 A16C,C22A (mixed)
RNA 1: B1 RNA 1
RNA 2: B2 RNA 2 with C30A, A36C, G42U, A49U
B13: target 1 C4A,G15U (mixed)
RNA 1: B1 RNA 1
RNA 2: B2 RNA 2 with G37U, G42U, C48A, A49U
B14: target 1 U10G,C22A (mixed)
RNA 1: B1 RNA 1
RNA 2: B2 RNA 2 with C30A, A49U
B15: target 1 A9U (mixed)
RNA 1: B1 RNA 1
RNA 2: B2 RNA 2 with G42U, A43U, A49U
B16: target 1 C2U,C4A (mixed)
RNA 1: B1 RNA 1
RNA 2: B2 RNA 2 with G42U, C48A, A49U, C50U
B17: target 1 insG 3' of 9,insA 3' of 5 (mixed)
RNA 1: B1 RNA 1
RNA 2: GGGAAUGGAUCCACAUCUACGAAUUCGUACCAUAGAGAGGUUAGUCCGACUCACCGAGAUCGGAAGAGCACACGU
B18: target 1 G5U,G12C (mixed)
RNA 1: B1 RNA 1
RNA 2: B2 RNA 2 with G40C, G42U, G47U, A49U
B19: target 1 insC 3' of 12,insG 3' of 2 (mixed)
RNA 1: B1 RNA 1
RNA 2: B17 RNA 2 with U41C, A43U, G44A, A49C, C50U, U51C, C52G
B20: target 1 insA 3' of 19,insC 3' of 3 (mixed)
RNA 1: B1 RNA 1
RNA 2: B9 RNA 2 with C33U, U34A, A52C, G53A
B21: target 1 insG 3' of 16,insA 3' of 10 (mixed)
RNA 1: B1 RNA 1
RNA 2: B1 RNA 2 with C36A, A37G, G42U, U44A
B22: target 1 A1U,A9U (mixed)
RNA 1: B1 RNA 1
RNA 2: B2 RNA 2 with G42U, A43U, A49U, A51U
B23: target 1 A18G (mixed)
RNA 1: B1 RNA 1
RNA 2: B2 RNA 2 with A34G, G42U, A49U
B24: target 1 insU 3' of 12,insA 3' of 6 (mixed)
RNA 1: B1 RNA 1
RNA 2: B17 RNA 2 with A43U, G44A, G48A, A49G
B25: target 1 insA 3' of 21,insA 3' of 8 (mixed)
RNA 1: B1 RNA 1
RNA 2: B9 RNA 2 with C33A, C46A, G48C, C49G, U50C, C51U, A52C, G53A
B26: target 1 insC 3' of 22,insC 3' of 10 (mixed)
RNA 1: B1 RNA 1
RNA 2: B1 RNA 2 with A32C, U33A, A34U, G35A, C36G, G42U, U44C
B27: target 1 G15C,C22A (mixed)
RNA 1: B1 RNA 1
RNA 2: B2 RNA 2 with C30A, G37C, G42U, A49U
B28: target 1 insU 3' of 17,insA 3' of 13 (mixed)
RNA 1: B1 RNA 1
RNA 2: B1 RNA 2 with C36U, G41A
B29: target 1 A1G,A9U (mixed)
RNA 1: B1 RNA 1
RNA 2: B2 RNA 2 with G42U, A43U, A49U, A51G
B30: target 1 C6G,U11C (mixed)
RNA 1: B1 RNA 1
RNA 2: B2 RNA 2 with U41C, G42U, C46G, A49U
B31: target 1 U11A (mixed)
RNA 1: B1 RNA 1
RNA 2: B2 RNA 2 with U41A, G42U, A49U
B32: target 1 insU 3' of 6,insG 3' of 3 (mixed)
RNA 1: B1 RNA 1
RNA 2: B17 RNA 2 with G44U, U45C, C47U, A49C, C50U, U51G
B33: target 1 insC 3' of 12,insA 3' of 11 (mixed)
RNA 1: B1 RNA 1
RNA 2: B17 RNA 2 with U41C, G44U, U45A, C46U, G48C, A49G
B34: target 1 insG 3' of 22,insA 3' of 8 (mixed)
RNA 1: B1 RNA 1
RNA 2: GGGAAUGGAUCCACAUCUACGAAUUCGUACGCAUAGAGAGGUUAUACCGCUCACCGAGAUCGGAAGAGCACACGU
B35: target 1 U8G,U19A (mixed)
RNA 1: B1 RNA 1
RNA 2: B2 RNA 2 with U33A, G42U, U44G, A49U

molecular target: T1, EsCas13d, nuclease-dead; test: crRNA (strand 1, pre-loaded); Mg2+; 40 mM Tris-HCl pH 7.5, 150 mM NaCl, 6 mM MgCl2, 1 mM DTT, 0.1% Tween-20, 0.2 mg/ml BSA; 25 C; 10 min per concentration, then washed; conditions: tags: His6-TwinStrep-SUMO cleaved; N-terminal SNAP kept (SNAP-Surface 488); label: 3' end held by stalled T7 RNA polymerase

Binder	Kd
B1	38 ± 4 nM
B2	61 ± 16 nM
B3	15.2 ± 1.8 nM
B4	35 ± 5 nM
B5	95 ± 14 nM
B6	30 ± 4 nM
B7	17.2 ± 0.8 nM
B8	7.7 ± 0.4 nM
B9	9.3 ± 0.4 nM
B10	40.9 ± 3.4 nM
B11	46 ± 5 nM
B12	71 ± 7 nM
B13	51 ± 19 nM
B14	60 ± 14 nM
B15	8.9 ± 0.7 nM
B16	6.7 ± 0.4 nM
B17	10.3 ± 1 nM
B18	41 ± 4 nM

Binder	Kd
B19	9.8 ± 1.2 nM
B20	17.4 ± 1.9 nM
B21	19.9 ± 1.5 nM
B22	7.8 ± 0.5 nM
B23	94 ± 28 nM
B24	8.6 ± 0.9 nM
B25	38.9 ± 1.8 nM
B26	41 ± 10 nM
B27	63 ± 12 nM
B28	13.1 ± 1.3 nM
B29	8.1 ± 0.6 nM
B30	9.8 ± 0.8 nM
B31	30.7 ± 1.9 nM
B32	7.9 ± 0.4 nM
B33	15 ± 1.2 nM
B34	35.9 ± 2.6 nM
B35	61 ± 13 nM
